Article PMC7225340

These substances were tested against cyno IL21R(1-232)-FLAG-His (cynomolgus monkey) (assay: BLI; ForteBio Octet RED384/HTX, 27 C; 10 mM Tris pH 7.5, 150 mM NaCl, 1 mM CaCl2, BSA, 0.13% Triton X-100; biotinylated human or cyno IL21R(1-232)-FLAG-His captured on streptavidin SAX tips to 2.0 nm; samples in 3-fold dilutions, top 300 nM for mutein fusions; association 20 min, dissociation 1.5 h; global 1:1 fit).

Row | Substance | Kd [nM]
1 | recombinant human IL-21 (free wild-type cytokine) (from UniProt Q9HBE4 25-162) (ligand) | 0.044

Each substance was assayed against human IL21R-Fc (bivalent) (human) (UniProt Q9HBE5) (assay: BLI; ForteBio Octet RED384/HTX, 27 C; 10 mM Tris pH 7.5, 150 mM NaCl, 1 mM CaCl2, BSA, 0.13% Triton X-100; receptor reagent bivalent IL21R-Fc (how it was held is not told); samples in 3-fold dilutions, top 10 nM for wild-type IL21 fusions, 300 nM for mutein fusions; association 20 min, dissociation 1.5 h; global 1:1 fit).
Sequence of UniProt Q9HBE5 (Q9HBE5 20-232): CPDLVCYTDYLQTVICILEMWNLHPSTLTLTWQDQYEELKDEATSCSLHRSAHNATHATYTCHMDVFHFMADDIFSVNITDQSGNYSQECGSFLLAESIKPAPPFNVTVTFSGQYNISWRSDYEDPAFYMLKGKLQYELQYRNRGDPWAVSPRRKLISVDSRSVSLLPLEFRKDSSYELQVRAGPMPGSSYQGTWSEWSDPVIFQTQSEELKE

Row | Substance | Kd [nM]
2 | anti-PD-1 mAb x IL-21 I8S, homodimer | 4
3 | anti-PD-1 mAb x IL-21 K72D, homodimer | 0.24
4 | anti-PD-1 mAb x IL-21 K72G, homodimer | 0.25
5 | anti-PD-1 mAb x IL-21 K72P, homodimer | 9
6 | anti-PD-1 mAb x IL-21 K73A, homodimer | 0.053
7 | anti-PD-1 mAb x IL-21 K73D, homodimer | 0.44
8 | anti-PD-1 mAb x IL-21 K73E, homodimer | 0.073
9 | anti-PD-1 mAb x IL-21 K73G, homodimer | 0.25
10 | anti-PD-1 mAb x IL-21 K73H, homodimer | 0.19
11 | anti-PD-1 mAb x IL-21 K73I, homodimer | 0.17
12 | anti-PD-1 mAb x IL-21 K73P, homodimer | 2
13 | anti-PD-1 mAb x IL-21 K73Q, homodimer | 0.069
14 | anti-PD-1 mAb x IL-21 K73S, homodimer | 0.17
15 | anti-PD-1 mAb x IL-21 K75G, homodimer | 0.16
16 | anti-PD-1 mAb x IL-21 K75P, homodimer | 1
17 | anti-PD-1 mAb x IL-21 K77G, homodimer (from UniProt Q9HBE4 25-162) | 0.66
18 | anti-PD-1 mAb x IL-21 L13D, homodimer | 11
19 | anti-PD-1 mAb x IL-21 P79D, homodimer | 0.32
20 | anti-PD-1 mAb x IL-21 Q12A, homodimer | 0.23

Row | Substance | Kd [nM]
21 | anti-PD-1 mAb x IL-21 Q12D, homodimer | 0.42
22 | anti-PD-1 mAb x IL-21 Q12E, homodimer | 0.031
23 | anti-PD-1 mAb x IL-21 Q12N, homodimer | 0.38
24 | anti-PD-1 mAb x IL-21 Q12S, homodimer | 0.32
25 | anti-PD-1 mAb x IL-21 Q12T, homodimer | < 0.26
26 | anti-PD-1 mAb x IL-21 Q12V, homodimer | < 2.2
27 | anti-PD-1 mAb x IL-21 Q19D, homodimer | 0.17
28 | anti-PD-1 mAb x IL-21 R5A, homodimer | 0.24
29 | anti-PD-1 mAb x IL-21 R5Q, homodimer | 2.1
30 | anti-PD-1 mAb x IL-21 R65G, homodimer | 0.13
31 | anti-PD-1 mAb x IL-21 R65P, homodimer | 0.9
32 | anti-PD-1 mAb x IL-21 R76D, homodimer | 12
33 | anti-PD-1 mAb x IL-21 R76G, homodimer | 2
34 | anti-PD-1 mAb x IL-21 R76H, homodimer | 2
35 | anti-PD-1 mAb x IL-21 R76K, homodimer | 0.2
36 | anti-PD-1 mAb x IL-21 R76L, homodimer | 0.2
37 | anti-PD-1 mAb x IL-21 R76M, homodimer | 0.6
38 | anti-PD-1 mAb x IL-21 R76N, homodimer | 15
39 | anti-PD-1 mAb x IL-21 R76P, homodimer | 0.4
